Reference: doi:10.1101/2022.06.13.496009

Target: T1, SALL4 ZFC4 (human, UniProt Q9UJQ4 856-930)
T1 sequence: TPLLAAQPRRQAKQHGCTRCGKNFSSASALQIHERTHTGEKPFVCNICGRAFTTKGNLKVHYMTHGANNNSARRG
Test: ITC

B1: 12-mer T3C/A3'G (dsDNA)
DNA 1: GGCAATATTTCC
DNA 2: GGAAATATTGCC
Kd: ~9.95 µM
